Reference: the NTF2 design screens of Basanta et al. (2020)

test: protease stability score; higher = more stable; yeast display proteolysis, trypsin and chymotrypsin;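 also: log10 excess protease needed over predicted unfolded state with 0 meaning unfolded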

Sequence | protease stability score
DDHRAHQMAEFVIDAIRTGDPDKFVNQADENVRVVIGDKQVQGHEEAREALKSLKDQADHVSLTDFRVHGDKVEVVFEARVNGVDLVMKVYARIHNGHLVMMSIDVTDPRKQKKADS | 1.11
DDHRAKQAVKAWTDNNPDNLRELFDKNVRVEIGEFTLHGREDAQSMVQRLHSRADHVEYKDIKVSNGRINIDVVYMVDGHRVRATIHLTIENGRLKSMEVRFTSEEDQKKAKRAFE | 0.09
DDHREEQMNRVAETGNFKHLASQLDKDATAFYGDKTVEGREHIQENLNRLHSHIDHIEYKKVEVKNGKVDVDFTAVINGTTFRAQMRLVVHNGRIKTISMRARDEKDKKLIHEWLS | 0.83
DDHSSARKFADEFREMMKTGDSTKADELFDPNVRVEVGDKRYHGREQAVDWIRHLVDRYDHIEIRIDHITVRGDRISIVFTVHYEKNGETTYDRYVMVAVDRNGRAQIKMLRKG | 2.51
DDHVLREVMKSWKDNDWKTLQDQVDPNARMKVGDNKVSGREQIEDLLQHLQDRIDHVEIKSMQHQGDKANFRFQFVVNGQRVDVVARVKAHNGKIQEWQVEVRNDELKEQLERAQK | 0.628
DDHVNREINRLMEKNDEQKFVDQADENASMDVGNKRYHGRDAAIKAARAWRKAADHVRIKRFEYSNGKIIIVVVVQFNGHRYDVTIDIVHHNGKVKEFVVRFTDPEQERDFRDWLG | 0.509
DDKAADDARRALEQLNTGNEERAATYMDPNVSVRIGDKSVHGREEIQRSEERKRRRLEVQYKDYRVSVENGEFTASYDYTNHHNGRPQRVKVEVHISADNGKIKSVQQHEDK | 0.213
DDKDADHVQRALRNLERGDPEKADTMFDPNAHVRIGDKEIHGREQLNHWVERVHTEMRQRWDFKDVNEHENHVQIDVSITTEKNGQPRSKHVKLNARVNNGTVTSVEQQDDG | -0.164
DDKDAKRLLTLWHQIEEGNPEEVQKMMDENVHVSIGDKEVHGREEDARQRKEEVDSMRVSLKIDHYSDNNGRIVVDATQENETNGKPSTKRFVIEARMDNGTLKRLQIEDDK | 0.097
DDKDIQEIAHEINHAWEEGDSKRFADLLSENARVDVGDKDYEGREFNKKWMKDIRDRVDHLEIDHVSAKGNTVEVTMVMNINGRNATVVVEYTFHNGQVRHAQLKFTSEEDKRKFHG | 0.453
DDKDLKDVAEKVMHAVQNGDPHEARKMFDKDARIIVGDTEVHGRSNIMHLMTEFRKRVDHAEIKDLTVNGEDVRIDMVLDINGKKHRRTWEVRVSNGRARHAHLDPKDLERQSK | 0.481
DDKDLRRVADVMETNDPDRLADLVDENARFIYGDKTYKGEKEATKVWETLYHQVDHKQIHTWDVRGDKLSVKMEMVVNGHDIQVHVRVDVRNGRIKQVELRATNEDDQRFIKRIWG | 0.218
DDKDMEQIKRLIEQLLTGDPDSAKRNFDENARVTIGDKTIEGRDDMRRWVDTVHKHAQLEITHMTVKVHGDKVKVNMDARRTHNGRPERATFKMDVELQNGKVKNQSIEIRK | 0.223
DDKDQHEEVEKFARNVVSGNSDELRKQMDKDVRANVGDKTLRGREEVADFWKHMRDRIDHAEIKEIRFHNGEARIVMQFVHNGRTKQINIVMEFHDGHVKRLRVEDG | 2.73
DDKDRRRVAEEVVRAFVQNDPDRLVELADEDARVHYGDRELHGREKARHMLRKFKEQVDTATYQDFNVHGDKVDIKLTAHFNGRTHTQTVIVVIHNGRIKFIEIRSS | 1.22
DDKDVEKAVRVMQTNDPDKYERMLDEDVSMVVGDQTYHGRETVNKVYKHYLERVDHIKITRYTIRNGVATVRYVVEWNGKSADVVVHVEVHNGRAKRFEYDVRDSEDKKNMEEMIK | 0.358
DDKEAHKRARQLVRIVQTGNESDVRKLFDKNARVVIGDKTFHGRENVQKAVREMRERVDHVQVHRVRAQGNKVRALVQYDINGKQEHYNFDMTFHNGRAKSMVVKES | 0.812
DDKEARKFAKDYVDAMKTGDEKRIEEMVDPNVSFQIGDQTYHGREQLKQALRSRRHHADHVQVDHVEAQGDKIDIDVQFNINGRDDKVKIKIRVHNGRIKEVVIEKK | 0.99

Sequence | protease stability score
DDKEEAESIAKTLQKILDTGNEEDYLNMADEDVEINIGDKHYRGREEFLKWVQKMTRQVDHLRIDVKSVEVSGDKAHIQYHLELNHDGKNETHKLVMVARKSNGRLTIKKITHQ | 1.19
DDKEKAEKFLTKWVEAIKTGNEEQLNELADPNVRFKYGDRVIHGREQQAKHNKELRERADRMEFRVDDVDIRPGKVVVHARYTVNINGKEETHQYTATADVKNGRLQITEQQNS | -0.092
DDKERDHLRKLMEEGDFTEIAENADPNAKFVIGDKEIHGREQFQTVAKRRQERVDHFDVKRVSVSGNKVRATMVMVVDGEKIHFTVIIEIDNGRVKSVRLQYRDETVKRQIEEAMS | -0.213
DDKEVRRNAEIALKALRTGDEDDAMEQADEDAKMVIGDKEVHGREKLREAVKDFKEEADHVQVRHFEVQNGRVNAEMEVDVNGQKQIYVMHVEVHNGKIKEINIQHK | 0.787
DDKHAEEVAELMTRNNFKQLAHQADPNVKIVVGEKKWHGREQMRTFMKILTKRVDHLNIQSYDVDNGRVKIDYVVNIDGQEIHVRVEIEFKNGRIQRYVLRATSDENQKELNKALS | 0.08
DDKHIQTQAERIAKALQTGDPDKFKNEMRKDVQVDVGDKRLHGREEVAKWMEDKHKRADRITYDSVEASGDKITMTVVIQINGRKKHFQFEATQSNGKIVHARERDQ | -0.393
DDKHKVEQLLRRADDALRTNDERKYIEMVDKDVRITVGDKQIHGKDEAVKFLRTLHNTYDHVQIRVESIENDGEKFKVIVQITAKHNGKETSHTLSFDAQRHNGQVRVKHASMG | 1.21
DDKKAQDFARKFADNLRTGNERQWEKMFDENVRIKYGDKTLHGREVARKEARTFHEQVDHMEVRSITAQGNQLVIMFEVKHNGRTDRMVWRAKVENGKIQHQTVTSQ | -0.084
DDKKQQNMAKHFADAIRRGDPKTFSDLADPNVTAQYGDKSIHGKDEMREFWKQYHDRVDSVDVEKFSVRGDKIDIKMRAVVDGKDRVLDLDIQLHNGRATHIKVNPDQVREMDK | 1.38
DDKKRVTQVFREWREALQTGNEEELHKQADKDVKFDVGESEFHGREKFVKHVQERLTQVDHLDIKMHSLKVDNGKADVSVIYRQNHNGKEDETTAVIIMTLSNGHAKIDTVKYG | -0.195
DDKKVHKAANRFVEMFRTGNPDDLHKQIDKDAHATVGDKTYRGRTHVVRQIIEMVERVDHVEVKSISVDGDHAKIDMVLRHDGQEERVDVVMRVHNGRFKSIEFQEQ | 0.512
DDKKVRLARSWMQNVRENNEERLQKLIDPNAKVRIGNKVVNGDEEFRRQVKHRKEHMRLDVEIESMTFQGDHVSATYVFRQNVNGTPYSDRVEVHIKMENGRIKHIDARVPEEKLRELSS | -0.106
DDKNRELLTEVLKARETGDPDRIHELLDPNVKVKVGNKTLRGRNEIAKWWKRQTDEMRIEESITHIDVHNGKARMEASARVEINGRPVTYTFIMKAVIHNGRVKEINIHIPEEKMQEVTQ | 0.948
DDKQAKELVKLMHTGDWETLINNMDPNARVVIGNKTYHGRHDAQKLLELWQKRVDHQDIHDVKARGDQLQVNMVFVINGVKFELVITVKFHNGRIESVQYDVTDRDQERKLEDLMS | 1.67
DDKQLDERVKEIQEVIRDNDPDSMKHLMDPNARMFVGDKEFHGRDEIVRHLKDLWHRVDHFHIKDFRASGNRAVVIAVFHVNGVTAHFKIFVVFQNGRIKQLRIKWRNEDEERRVRS | 0.674
DDKQQMEEMLQKYQEALDTGDPEKLASLFDENAEVRIGDKVYRGHEDIKRAAKHLLDNVDHIEIRLRSLETRPGRIHARLQMNVRHNGKNTTKTLHVVARKQGDEFVVEHMEVE | 2.07
DDKRKADEFAKELVKAVQTGDSDNIRKLLDPNARINVGEKHYQGKDSMAKIMVRIAEDVDHISARVISVRDHNGSAVIHIEVQNNHNGRNSRTRVILHLTDHNGRIKLRERREG | 0.749
DDKTIKENLKVFNRGNPDDMKTLMDKDVRLEVGEKSVHGREQAQTWQDRYERQVDHRRVKSYSMNGNNVVADMVVQVNGREYEVRLEVHVHNGRIKVLRLEVRDEDDRRNLKRLLS | 0.211
